Experimental data reported in the RNAGym collection of RNA variant scans (doi:10.1073/pnas.2313332121).
This sample holds only a part of the variants without activity.

B1: TPR 5TU (parent)
chain: GGAUCUUCUCGAUCUAACAAAAAAGACAAAUCUGCCACAAAGCUUGAGAGCAUCUUCGGAUGCAGAGGCGGCAGCCUUCGGUGGCGCGAUAGCGCCAACGUUCUCAACUAUGACACGCAAAACGCGUGCUCCGUUGAAUGGAGUUUAUCAUG

Variants of: B1
Assay: polymerase ribozyme fitness, log enrichment relative to wild type (log ratio); higher = more active; in vitro selection for triplet polymerase activity
How it was run: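 Each subunit of a heterodimeric triplet polymerase ribozyme was represented by a PCR-built, transcribed mutant library that underwent triplicate single-round in vitro selection with frozen incubation at −7 °C. Extended constructs were recovered by gel excision, streptavidin-bead capture and RT-PCR, and Illumina sequencing of input and output libraries kept genotypes with ≥10 input reads and ≥1 read per output. Fitness is the logarithm of genotype enrichment relative to wild-type enrichment, from inverse-variance-weighted replicate averages, with a logarithm base of 2.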

Variant	polymerase ribozyme fitness (log ratio)
GGAUCUUCUCGAACUAACAUAAAAGACCAAUCUGCCACAAAGCUUGAGAGCAUCUUCGGAUGCAGAGGCGGCAGCCUUCGGUGGCGCGAUAGUGCCAACGUUCUCAACUAUGACACGCAAAACGCGUGCUCCGUUCUAUGGAGUUUAUCAUG	≤ -4.2
GGAUCUUCUCGAUCUAACAAAAAACACAAAUCUGCCACAACGCUUGAGAGCAUCAUCGGAAGCAGAGGCGGCAGCCUUCGGUGGCGCGAUAGCGCCAACGUUCUCAACUAUGACAUGCAAAACGCGUGCUCCGUUGAAUGGAGAUUAUCAUG	≤ -4.2
GGAUCUUCUCGAUCUAACAAAAAAGACAAAUUUGCCACAAAGCUUGAGAGCAUCUUCGGAAGCAGAGGCGGCAGCCUUCGGUGGCGCGAUAGCCCCAACGUUCUUAUCUUUGACACGCAAAACGCGUGCUCCGUUGAAUGGAGUUUAUCAUG	≤ -4.2
GGAUCUUCUCGAUCUAACAAAAAAGACAAAUCUGCCACAAAGCUUGGGUGCAUCUUCGGAUGCAGAGGCGGCAGCCUUCGGUGGCGCGAUAGCGCCAACGUUGUCAACUAUGACACGCAAAACGCGUGCUCCGUUGAAUGGAGUUUAUCAUG	≤ -4.2
GGAUCUUCUCGAUCUAACAAAAAAGACAAAUCUGCCACAAAGCUUGAGAGCAUCUUCGGAUGCAGAGGCGGCAGCCUUCGGUGGCGCGAUAGGGCCAUCGUUCUCAACUAUGACACGCAAAACGCGUGCUCCGUUGAAUGGAGUUUAUCAUG	-2.82
GGAUCUUCUCGAUCUAACAAAAAAGACAAAUCUGCCACAUAGCUUGAGAGCAUCAUCGAAUGCAGAGGCGGCAGCCUUUGGGAGCGCGAUAGCGCCAACGUUCUCAACUAUGACACGCAAAACGCGUACUCCGUUGAAGGGAAUUUAUCAUG	≤ -4.2
GGAUCUUCUCGAUCUAACAAAAAAGACAAAUCUGCCACAAAGCUUGAGAGCAUCUUCGGAUGCAGAGGCGGCAGCCUUCGGUGGCGCGUUAGCGCCAACGUUCUCAACUAUGACACGCAAAACGCGUGCUCCGUUGAAUGGAGUUUAUCGUG	-0.42
GGAUCUUCUCGAACUAACAAAAAAGACAAAUCUGCCAUAAAGCUUGAGAGCAUCUUCGGAUGCAGAGGCGGCAGCCUUCGGUCGCGCGAUAGCGCCAACGUUCUCAACUAUGACACGCAAAACGCGUGCUCCGUUGAAUAGAGUUUAUCAUG	≤ -4.2
GGAUCUUCUCGAUCUAACAAAAAAGACAAAUCUGCCACAGGGCUUGAGAGCAGCUUCGGAUGCAGAGGCGGCAGCCUUCGGUGGAGCGAUAGCGCCAACGUUCUCAACUAUGACACGCAAAACGCGGGCUUCGUUGAAUGGAAUUUAUCAUG	≤ -4.2
GGAUCUUCUCUAUCUAACAAAAAAGACAAAUCUACCACAAAGCUUGAGAGCAUCUUCGGAUGCAGAGGCGGCAGCCUUCGGUGGCGCAAUAGCGCCAACGUUCUCAACUAUGACACGCAAAACACGUGCUCCGUUGAAUGGAGUUUAUCAUG	≤ -4.2
GGAUCUUCUCGAUCUCACAAAAAAGACAAAUCUGCCACAAAGCUUGAGAGCAUCUUCGGAUGCAGAGGCGGCAGCGUUCGGUGGUGCGAUAGCGCCAACGUUCUCAACUAUGACACGCAAAACGCGUGCUCCCUUGAAUGGAGUUUAUAAUG	≤ -4.2
GGAUCUUCUCGAUCUAACAAAAAAGACAAAUCUGUCACAAAGCUUGAGAGCAUCUUCGGAUGCAGAGGCGGCAGCCUUAGUUGGCGCGAUAGAGCCAACGUACUCAACUAUGACACGCAAAACGCGAGCUCCGUUGAAUGGAGUUUAUCAUG	≤ -4.2
GGAUCUUCUCCAUCUAACAAAAAAGACAGAUCUGCCACAUAGCUUGAGAGCAUCUUCGGAUGCAGAGGCGGCAGCUUUCGGUGGCGUGAUAGCGCCAACGUUCUCAACUAUGACACGCAAAACGCGUGCUCCGUUGAAUGGAGUUUAUCAUG	≤ -4.2
GGAUCUUCUCGAUCUAACAAAAAAGACAAAUCUGCCACAAAGCUUGAGAGCAGCUUCGGAUGCAGAGGCGGCAGCCUUCGGUGGCGCGAUAGAGCCAACGUUGUCAACUAUGACACGCAAAACGCGUGCUCCGUUGAAUGGAGUUUAUCAUG	≤ -4.2
GGAUCUUCUCGAUCUAACAAAAAAGACAAAUCUGCCACAAAGCUUGAGAGAAUCUUCGUAUGCAGAGGCGGCAGCCUUCGGUGUCGCGAUAGCGCCAACGUUCUCAACUAUGACACGCAAAACGCGUGCUCCGUUGAAUGGAGUUUAUCAUG	≤ -4.2
GGAUCUUCUCGAUCUAACAAAAAAGAUAAAGCUGCCACAAAGCUUGAGAGCAUCGUCGGAUGCAGAGGCGGCAGCCUUCGGUGGCGCGAUAGCCCCAACGUUCUCAACUAUGCCACGCAAAACGCGUGCUCCGUUGAAUGGAGUUUAUCAUG	≤ -4.2
GGUUCUUCUCGAUCUAACAAAAAAGACAAAUCUGCCACAAAGCUUGAGAGCAUCUUCGGAUGCAGAGGCGGCAGCCUUCGGUGGCGCAAUAGCGCCAACGUUCUCAACUGUGACACGCAAAACGCGUGCUCCGUUGAAUGGAGUUUAUCAUG	≤ -4.2
GGAUCUUCUCGAUGUAACAAAAAAGACAAAUCUGCCACAAAGCUUGAGAGCAUCUUCGGAUGCAGAGGCGGCAGCCUUCGGUGGCGCGAUAUCGCCAACGUUCUCAACUAUGACACGCAAAACGCGUGCUCCGUUGAAUGGAGUUUAUCAUG	-2.61
GGAUCUUCUCGAUCUAACAAAAAAGACAAAUCUGCCACAAAGCUUGAGAGCAUCUUCAGAUGCAGAGGCGGCAGCCUUCGGUGGCUCGAUAGCGCCAACGUUCUCAACUAUGACACGCUAAACGCGUGCUCCGUUGAAUGGAGUUUAUCAUG	-2.06
